From patent publication US20210179715A1 (Genentech, published 2021) come the findings set out here.

The target of assay [1] is T1, human LY6G6D-Fc (human, UniProt O95868 20-104).
T1 construct: also called hu Ly6G6D; huLY6G6D; not shown: linker and Fc part
T1 sequence: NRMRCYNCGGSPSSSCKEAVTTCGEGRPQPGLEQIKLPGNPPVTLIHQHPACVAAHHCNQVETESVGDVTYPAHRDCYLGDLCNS
In words: BIAcore SPR; LY6G6D-Fc on chip; TDB flowed; 37 C. As for the experimental part:
The humanized rb.20A12 variant 20A12.QNTv12, the humanized rb.6E10 variant 6E10.v114, and the anti-LY6G6D 1G4 arm were paired with the anti-CD3 38E4v1 or 40G5c arm as TDBs and tested for affinity to human and cynomolgus LY6G6D in a BIAcore® assay. Rabbit 20Al2, rabbit 6E10, and humanized 20A12.QNTv12 and 20A12.SNVv12 were additionally assayed for binding as antigen-binding fragments (Fabs). LY6G6D-Fc was directly immobilized on a chip, and TDBs were flowed through at 37° C., except for the rb6E10 Fab, which was assayed at 25° C.

Another assay has as its target T2, LY6G6D on HT55 cells (human, UniProt O95868 20-104).
T2 sequence: T1 sequence
In words: cell-based or functional assay.

The target of assay [2] is T1, human LY6G6D-Fc. Nature of the assay: BIAcore SPR; two-cell TDB.
In assay [3] the target is T3, human extracellular domain (ECD) of CD3 (human, UniProt P07766 23-126).
T3 construct: extracellular domain; also called huCD3
T3 sequence (P07766 23-126): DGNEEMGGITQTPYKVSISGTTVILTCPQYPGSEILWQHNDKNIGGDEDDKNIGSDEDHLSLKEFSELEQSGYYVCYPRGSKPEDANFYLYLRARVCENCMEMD
In words: BIAcore SPR; two-cell TDB.

Assay [4] has as its target T4, cyno extracellular domain (ECD) of CD3 (cynomolgus monkey, UniProt Q95LI5 22-117).
T4 construct: extracellular domain; also called CyCD3
T4 sequence (looked up): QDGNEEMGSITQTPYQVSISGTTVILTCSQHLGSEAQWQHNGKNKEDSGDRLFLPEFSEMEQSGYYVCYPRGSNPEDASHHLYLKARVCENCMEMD
Nature of the assay: BIAcore SPR; two-cell TDB.

Assay [5] deals with T5, 27mer human CD3 polypeptide conjugated to biotin (human, conjugated to biotin (site not stated)).
T5 construct: The assay text says only '27mer human CD3 polypeptide'; also called HuCD3e pept biotin
T5 peptide: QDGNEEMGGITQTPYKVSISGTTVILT
Nature of the assay: BIAcore T200 SPR; biotin 27mer CD3 peptide on SA chip; TDB flowed; 37 C. Here is the method: The MD1 and MD4 variants thus retained the high affinity of 38E4v1. Assays were performed using a BIAcore T200: 27mer human and cyno CD3 polypeptides were conjugated to biotin and were immobilized on a SA CM5 chip, and TDBs were flowed through at 100 μl/min at 37° C.

Assay [6] has as its target T1, human LY6G6D-Fc. Nature of the assay: BIAcore SPR; LY6G6D-Fc on chip; TDB flowed; 37 C. As for the experimental part: TDBs comprising the anti-LY6G6D arm 20Al2.QNTv12 and the anti-CD3 38E4.v1 (left panel; produced using a two-cell-manufacturing system), 38E4.v1 MD1 (center panel; produced using a one-cell-manufacturing system), or 38E4.v1 MD4 arm (right panel; produced using a one-cell-manufacturing system) were assayed for affinity for a human Ly6G6D polypeptide (FIG. 25) using a BIAcore assay.
This is another data set of the same source.

Assay [7] concerns the target T5, 27mer human CD3 polypeptide conjugated …. In words: BIAcore T200 SPR; biotin 27mer CD3 peptide on SA chip; TDB flowed; 37 C. Here is the method:
Assays were performed using a BIAcore T200. 27mer human and cyno CD3 polypeptides were conjugated to biotin and were immobilized on a SA CM5 chip. LY6G6D TDBs were flowed through at 37° C.

“And” between values parts separate entries of the source, which are not always exact repeats. Identical values can stand only once. Like-named read-outs stand apart in the source and are kept apart here.

B1: LY6G6D TDB comprising the anti-LY6G6D 20A12.QNTv12 arm (two-cell) and the anti-CD3 38E4v1 arm (bispecific antibody, V domains shown)
VH 1: EVQLLESGGGLVQPGGSLRLSCAASGFDFVNNAMIWVRQAPGKGLEWVSALSFADNTAYYATWASGRFTISRDSSKTTVYLQMNSLRAEDTAVYYCMRGDLWGPGTLVTVSS
VL 1: DIQMTQSPSTLSASVGDRVTITCQASESITRYLNWYQQKPGKAPKLLIYDASKLPSGVPSRFSGSGSGTEFTLTISSLQPDDFATYYCQSTSFRGRSYQNTFGGGTKVEIK
VH 2: EVQLVQSGAEVKKPGASVKVSCKASGFTFTSYYIHWVRQAPGQGLEWIGWIYPENDNTKYNEKFKDRVTITADTSTSTAYLELSSLRSEDTAVYYCARDGYSRYYFDYWGQGTLVTVSS
VL 2: DIVMTQSPDSLAVSLGERATINCKSSQSLLNSRTRKNYLAWYQQKPGQSPKLLIYWTSTRKSGVPDRFSGSGSGTDFTLTISSLQAEDVAVYYCKQSFILRTFGQGTKVEIK
notes: Full-length IgG1 kappa; also called hu20A12.QNTv12/38E4v1 TDB; 20A12.QNTv12/38E4v1
As for B1, the equilibrium dissociation constant (Kd) in the assay with human LY6G6D-Fc [1] was 2.02 nM; with human LY6G6D-Fc [2] it was 2.02 nM; in assay [3], 20 nM; in assay [4], 15 nM; in assay [5] it was 17.6 nM and 21.9 nM; with human LY6G6D-Fc [6], 1.39 nM. The same molecule registered a Kd in assay [7] of 19.8 nM. Besides, the koff with human LY6G6D-Fc [1] was 0.000444 s⁻¹; in assay [5] it was 0.0429 s⁻¹ and 0.0486 s⁻¹; with human LY6G6D-Fc [6], 0.000416 s⁻¹. The kon with human LY6G6D-Fc [1] was 220000 M⁻¹ s⁻¹; in assay [5], 2.44e+06 M⁻¹ s⁻¹ and 2.22e+06 M⁻¹ s⁻¹; with human LY6G6D-Fc [6], 299000 M⁻¹ s⁻¹. The “average CD8+T cell activation EC50” value in the assay with LY6G6D on HT55 cells was ~87 ng/ml and ~583 pM. The “average cell killing EC50” value with LY6G6D on HT55 cells was ~1.04 ng/ml and ~7 pM.
